The target in the assay is T1, RoxP_HypProt_pET-22b.
T1 construct: also called RoxP_6
T1 single chain: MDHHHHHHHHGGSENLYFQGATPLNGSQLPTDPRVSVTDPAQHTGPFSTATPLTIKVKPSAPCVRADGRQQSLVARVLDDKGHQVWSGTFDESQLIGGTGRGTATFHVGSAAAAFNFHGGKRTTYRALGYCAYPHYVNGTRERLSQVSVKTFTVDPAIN
Description: indirect ELISA on recombinant RoxP orthologs, absorbance normalized (%). (In general: In an ELISA, binding on a coated surface is turned into a signal by an enzyme label.)

B1: 2H2F3 (antibody, V domains shown)
VH: QVQLQQSGAELVRPGVSVKISCKGSGYTFTDYAMHWVKQSHAKSLEWIGIISTYYGNASYNQKFKGKATMTVDKSSSTAYMELARLTSEDSAIYYCARVPYYGSSYAMDYWGQGTSVTVSS
VL: DVLMTQTPLSLPVSLGDQASISCRSSQNIVHSDGNTYLEWYLQKPGQSPKLLIYKVSNRFSGVPDRFSGSGSGTDFTLKISRVEAEDLGVYYCFQGSHVPWTFGGGTKLEIK
notes: also called IgG-2H2F3-1; 2H2F3-1
On to B1, for which the binding result is “no binding (tested: 330 ng/ml)”.

The record behind these values is patent US20240400656A1 (WASHINGTON UNIVERSITY, published 2024).
